Measured values as given in paper PMC9763339.

Target: RBM5-Myc (UniProt P52756)
Chain of UniProt P52756 (P52756 whole entry): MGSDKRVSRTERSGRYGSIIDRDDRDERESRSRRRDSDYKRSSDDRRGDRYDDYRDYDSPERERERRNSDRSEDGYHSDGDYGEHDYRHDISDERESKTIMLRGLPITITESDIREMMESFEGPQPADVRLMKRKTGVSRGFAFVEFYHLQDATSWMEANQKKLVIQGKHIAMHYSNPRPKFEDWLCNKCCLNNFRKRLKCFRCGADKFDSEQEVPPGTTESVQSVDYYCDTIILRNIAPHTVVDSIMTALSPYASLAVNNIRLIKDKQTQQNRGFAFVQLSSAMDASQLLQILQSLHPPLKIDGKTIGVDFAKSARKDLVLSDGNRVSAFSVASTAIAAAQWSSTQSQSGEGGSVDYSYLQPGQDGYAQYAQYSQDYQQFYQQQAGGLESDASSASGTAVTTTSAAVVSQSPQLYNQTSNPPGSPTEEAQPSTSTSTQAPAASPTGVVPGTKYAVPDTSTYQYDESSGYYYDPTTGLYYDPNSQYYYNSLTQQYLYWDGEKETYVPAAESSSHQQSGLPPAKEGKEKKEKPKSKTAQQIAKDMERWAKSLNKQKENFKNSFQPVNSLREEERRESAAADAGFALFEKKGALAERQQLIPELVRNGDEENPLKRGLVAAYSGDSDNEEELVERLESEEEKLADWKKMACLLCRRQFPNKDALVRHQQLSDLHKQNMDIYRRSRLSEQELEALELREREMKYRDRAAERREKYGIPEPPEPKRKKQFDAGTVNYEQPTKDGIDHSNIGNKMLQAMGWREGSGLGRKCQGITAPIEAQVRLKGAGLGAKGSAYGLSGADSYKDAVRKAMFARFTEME

Substance: InlP-HA (in HeLa cells) (natural protein)
- percentage of HeLa cells with aberrantly shaped nuclei (RBM5-induced cell death) when InlP is co-expressed with RBM5: 13%
